B1: LINE1-full (parent)
chain: UACGUAGGUGGUUUUCCCCUGAUAGUGCUAAGGGGGCCUGGAAGUUUGGACUGGGCAGAGCUCAACACAGCGUGGCAAAGUGGCUGUGGCUAGACUGCCUCUCUGGAUUCCUCGUCACUCAGCAGGGCAUCUCUGAGAGAAAUGCC

Variants of: B1
Test: self-cleavage, relative activity (ratio to wild type); higher = more cleavage; in vitro, sequencing; the parent is a self-cleaving ribozyme
Variant UACGUAGGUGGUUUUCCCCUGAUAGUGCUAAGGGGGCCUGGAAGUUUGGACUGGGCAGAGCUCAACACAGCGUGGCAAAGUGGCUGUAGCUAGACUGCCUCUCUGGAUUCCUCGUCACUCAGCAGGGCAUCUCUGAGAGAAGUGCC [G88A A142G] has a self-cleavage of 0.06.
Work on UACGUAGGUGGUUUUCCCCUGAUAGUGCUAAGGGGGCCUGGAAGUUUGGACUGGGCAGAGCUCAACACAGCGUGGCAAAGUGGCUGUAGCUAGACUACCUCUCUGGAUUCCUCGUCACUCAGCAGGGCAUCUCUGAGAGAAAUGCC [G88A G97A] yielded a self-cleavage of 0.04.
UACGUAGGUGGUUUUCCCCUGAUAGUGCUAAGGGGGCCUGGAAGUUUGGACUGGGCAGAGCUCAACACAGCGUGGCAAAGUGGCUGUAGCUAGACUGCCUCUCUGGAUUCCUCGUCACUCAGCAGGGCAUCUCUAAGAGAAAUGCC [G88A G135A] showed a self-cleavage of 0.08.
For UACGUAGGUGGUUUUCCCCUGAUAGUGCUAAGGGGGCCUGGAAGUUUGGACUGGGCAGAGCUCAACACAGCGUGGCAAAGUGGCUGUAGCUAGACAGCCUCUCUGGAUUCCUCGUCACUCAGCAGGGCAUCUCUGAGAGAAAUGCC [G88A U96A], the self-cleavage was 0.03.
UACGUAGGUGGUUUUCCCCUGAUAGUGCUAAGGGGGCCUGGAAGUUUGGACUGGGCAGAGCUCAACACAGCGUGGCAAAGUGGCUGUAGCUAGACUGCCUCACUGGAUUCCUCGUCACUCAGCAGGGCAUCUCUGAGAGAAAUGCC [G88A U102A] showed a self-cleavage of 0.04.
In the case of UACGUAGGUGGUUUUCCCCUGAUAGUGCUAAGGGGGCCUGGAAGUUUGGACUGGGCAGAGCUCAACACAGCGUGGCAAAGUGGCUGUAGCUAGACUGCCUCCCUGGAUUCCUCGUCACUCAGCAGGGCAUCUCUGAGAGAAAUGCC [G88A U102C], the self-cleavage is reported as 0.06.
UACGUAGGUGGUUUUCCCCUGAUAGUGCUAAGGGGGCCUGGAAGUUUGGACUGGGCAGAGCUCAACACAGCGUGGCAAAGUGGCUGUAGCUAGACUGCCUCUCUGGACUCCUCGUCACUCAGCAGGGCAUCUCUGAGAGAAAUGCC [G88A U108C] showed a self-cleavage of 0.05.
Work on UACGUAGGUGGUUUUCCCCUGAUAGUGCUAAGGGGGCCUGGAAGUUUGGACUGGGCAGAGCUCAACACAGCGUGGCAAAGUGGCUGUAGCUAGACUGCCUCUCUGGAUUCCACGUCACUCAGCAGGGCAUCUCUGAGAGAAAUGCC [G88A U112A] yielded a self-cleavage of 0.08.
Variant UACGUAGGUGGUUUUCCCCUGAUAGUGCUAAGGGGGCCUGGAAGUUUGGACUGGGCAGAGCUCAACACAGCGUGGCAAAGUGGCUGUAGCUAGACUGCCUCUCUGGAUUCCUCGCCACUCAGCAGGGCAUCUCUGAGAGAAAUGCC [G88A U115C] has a self-cleavage of 0.06.
With UACGUAGGUGGUUUUCCCCUGAUAGUGCUAAGGGGGCCUGGAAGUUUGGACUGGGCAGAGCUCAACACAGCGUGGCAAAGUGGCUGUAGCUAGACUGCCUCUCUGGAUUCCUCGUCACACAGCAGGGCAUCUCUGAGAGAAAUGCC [G88A U119A] the self-cleavage was 0.06.
In the case of UACGUAGGUGGUUUUCCCCUGAUAGUGCUAAGGGGGCCUGGAAGUUUGGACUGGGCAGAGCUCAACACAGCGUGGCAAAGUGGCUGUAGCUAGACUGCCUCUCUGGAUUCCUCGUCACUCAGCAGGGCAUCCCUGAGAGAAAUGCC [G88A U132C], the self-cleavage is reported as 0.09.
For UACGUAGGUGGUUUUCCCCUGAUAGUGCUAAGGGGGCCUGGAAGUUUGGACUGGGCAGAGCUCAACACAGCGUGGCAAAGUGGCUGUCGCUAGACUGCCUCUCUGGAUUCCUCGUCACUCAGCAGGGCAUCUCUGAGAGAAAUGCC [G88C], the self-cleavage was 0.11.
For UACGUAGGUGGUUUUCCCCUGAUAGUGCUAAGGGGGCCUGGAAGUUUGGACUGGGCAGAGCUCAACACAGCGUGGCAAAGUGGCUGUCGCUAGACUGCCUCUCUGGAUUCCUCGUCACUCAGCAGGGCAUCUCUGAGAGAGAUGCC [G88C A141G], the self-cleavage was 0.14.
UACGUAGGUGGUUUUCCCCUGAUAGUGCUAAGGGGGCCUGGAAGUUUGGACUGGGCAGAGCUCAACACAGCGUGGCAAAGUGGCUGUUGCUAGACUGCCUCUCUGGAUUCCUCGUCACUCAGCAGGGCAUCUCUGAGAGAAAUGCC [G88U] gave a self-cleavage of 0.05.
UACGUAGGUGGUUUUCCCCUGAUAGUGCUAAGGGGGCCUGGAAGUUUGGACUGGGCAGAGCUCAACACAGCGUGGCAAAGUGGCUGUUGCUAGACUGCCUCUCUGGAUUCCUCGUCACUCAGCAGGGCAUCUCUGAGAGGAAUGCC [G88U A140G] gave a self-cleavage of 0.04.
For UACGUAGGUGGUUUUCCCCUGAUAGUGCUAAGGGGGCCUGGAAGUUUGGACUGGGCAGAGCUCAACACAGCGUGGCAAAGUGGCUGUUGCUAGACUGCCUCUCUGGAUUCCUCGUCACUCAGCAGGGCAUCUCUGAGAGAAGUGCC [G88U A142G], the self-cleavage was 0.
Work on UACGUAGGUGGUUUUCCCCUGAUAGUGCUAAGGGGGCCUGGAAGUUUGGACUGGGCAGAGCUCAACACAGCGUGGCAAAGUGGCUGUUGCUAGACUGCCUCUCUGGAUUCCUCGUCACUCAGCAGAGCAUCUCUGAGAGAAAUGCC [G88U G126A] yielded a self-cleavage of 0.
With UACGUAGGUGGUUUUCCCCUGAUAGUGCUAAGGGGGCCUGGAAGUUUGGACUGGGCAGAGCUCAACACAGCGUGGCAAAGUGGCUGUUGCUAGACUGCCUCUCUGGAUUCCUCGACACUCAGCAGGGCAUCUCUGAGAGAAAUGCC [G88U U115A] the self-cleavage was 0.07.
For UACGUAGGUGGUUUUCCCCUGAUAGUGCUAAGGGGGCCUGGAAGUUUGGACUGGGCAGAGCUCAACACAGCGUGGCAAAGUGGCUGUGACUAGGCUGCCUCUCUGGAUUCCUCGUCACUCAGCAGGGCAUCUCUGAGAGAAAUGCC [G89A A94G], the self-cleavage was 0.07.
With UACGUAGGUGGUUUUCCCCUGAUAGUGCUAAGGGGGCCUGGAAGUUUGGACUGGGCAGAGCUCAACACAGCGUGGCAAAGUGGCUGUGACUAGACUGCCUCUCUGGAUUCCUCGUCGCUCAGCAGGGCAUCUCUGAGAGAAAUGCC [G89A A117G] the self-cleavage was 0.05.
UACGUAGGUGGUUUUCCCCUGAUAGUGCUAAGGGGGCCUGGAAGUUUGGACUGGGCAGAGCUCAACACAGCGUGGCAAAGUGGCUGUGACUAGACUGCCUCUCUGGAUUCCUCGUCACUCAGCAGGGCAUCUCUGGGAGAAAUGCC [G89A A136G] showed a self-cleavage of 0.04.
UACGUAGGUGGUUUUCCCCUGAUAGUGCUAAGGGGGCCUGGAAGUUUGGACUGGGCAGAGCUCAACACAGCGUGGCAAAGUGGCUGUGACUAGACUGCCUCUCUGGAUUCCUCGUCACUCAGCAGGGCAUCUCUGAGUGAAAUGCC [G89A A138U] showed a self-cleavage of 0.05.
UACGUAGGUGGUUUUCCCCUGAUAGUGCUAAGGGGGCCUGGAAGUUUGGACUGGGCAGAGCUCAACACAGCGUGGCAAAGUGGCUGUGACUAGACUGCCUCUCUGGAUUCCUCGUCACUCAGCAGGGCAUCUCUGAGAGUAAUGCC [G89A A140U] gave a self-cleavage of 0.02.
UACGUAGGUGGUUUUCCCCUGAUAGUGCUAAGGGGGCCUGGAAGUUUGGACUGGGCAGAGCUCAACACAGCGUGGCAAAGUGGCUGUGACUAGACUGCCUCUCUGGAUUCCUCGUCACUCAGCAGGGCAUCUCUGAGAGAGAUGCC [G89A A141G] showed a self-cleavage of 0.02.
With UACGUAGGUGGUUUUCCCCUGAUAGUGCUAAGGGGGCCUGGAAGUUUGGACUGGGCAGAGCUCAACACAGCGUGGCAAAGUGGCUGUGACUAGACUGCCUCUCUGGAUUCCUCGUCACUCAGCAGGGCAUCUCUGAGAGAUAUGCC [G89A A141U] the self-cleavage was 0.02.
UACGUAGGUGGUUUUCCCCUGAUAGUGCUAAGGGGGCCUGGAAGUUUGGACUGGGCAGAGCUCAACACAGCGUGGCAAAGUGGCUGUGACUAGACUGCCUCUCUGGAUUCCUCGUCACUCAGCAGGGCAUCUCUGAGAGAAGUGCC [G89A A142G] gave a self-cleavage of 0.03.
UACGUAGGUGGUUUUCCCCUGAUAGUGCUAAGGGGGCCUGGAAGUUUGGACUGGGCAGAGCUCAACACAGCGUGGCAAAGUGGCUGUGACUAGACCGCCUCUCUGGAUUCCUCGUCACUCAGCAGGGCAUCUCUGAGAGAAAUGCC [G89A U96C] gave a self-cleavage of 0.07.
With UACGUAGGUGGUUUUCCCCUGAUAGUGCUAAGGGGGCCUGGAAGUUUGGACUGGGCAGAGCUCAACACAGCGUGGCAAAGUGGCUGUGACUAGACUGCCACUCUGGAUUCCUCGUCACUCAGCAGGGCAUCUCUGAGAGAAAUGCC [G89A U100A] the self-cleavage was 0.04.
UACGUAGGUGGUUUUCCCCUGAUAGUGCUAAGGGGGCCUGGAAGUUUGGACUGGGCAGAGCUCAACACAGCGUGGCAAAGUGGCUGUGACUAGACUGCCUCUCUGGACUCCUCGUCACUCAGCAGGGCAUCUCUGAGAGAAAUGCC [G89A U108C] gave a self-cleavage of 0.04.
UACGUAGGUGGUUUUCCCCUGAUAGUGCUAAGGGGGCCUGGAAGUUUGGACUGGGCAGAGCUCAACACAGCGUGGCAAAGUGGCUGUGACUAGACUGCCUCUCUGGAUCCCUCGUCACUCAGCAGGGCAUCUCUGAGAGAAAUGCC [G89A U109C] showed a self-cleavage of 0.04.
Work on UACGUAGGUGGUUUUCCCCUGAUAGUGCUAAGGGGGCCUGGAAGUUUGGACUGGGCAGAGCUCAACACAGCGUGGCAAAGUGGCUGUGACUAGACUGCCUCUCUGGAUUCCACGUCACUCAGCAGGGCAUCUCUGAGAGAAAUGCC [G89A U112A] yielded a self-cleavage of 0.05.
In the case of UACGUAGGUGGUUUUCCCCUGAUAGUGCUAAGGGGGCCUGGAAGUUUGGACUGGGCAGAGCUCAACACAGCGUGGCAAAGUGGCUGUGACUAGACUGCCUCUCUGGAUUCCUCGCCACUCAGCAGGGCAUCUCUGAGAGAAAUGCC [G89A U115C], the self-cleavage is reported as 0.04.
Work on UACGUAGGUGGUUUUCCCCUGAUAGUGCUAAGGGGGCCUGGAAGUUUGGACUGGGCAGAGCUCAACACAGCGUGGCAAAGUGGCUGUGACUAGACUGCCUCUCUGGAUUCCUCGUCACCCAGCAGGGCAUCUCUGAGAGAAAUGCC [G89A U119C] yielded a self-cleavage of 0.06.
Work on UACGUAGGUGGUUUUCCCCUGAUAGUGCUAAGGGGGCCUGGAAGUUUGGACUGGGCAGAGCUCAACACAGCGUGGCAAAGUGGCUGUGACUAGACUGCCUCUCUGGAUUCCUCGUCACUCAGCAGGGCACCUCUGAGAGAAAUGCC [G89A U130C] yielded a self-cleavage of 0.02.
In the case of UACGUAGGUGGUUUUCCCCUGAUAGUGCUAAGGGGGCCUGGAAGUUUGGACUGGGCAGAGCUCAACACAGCGUGGCAAAGUGGCUGUGACUAGACUGCCUCUCUGGAUUCCUCGUCACUCAGCAGGGCAUCUCUGAGAGAAACGCC [G89A U143C], the self-cleavage is reported as 0.03.
UACGUAGGUGGUUUUCCCCUGAUAGUGCUAAGGGGGCCUGGAAGUUUGGACUGGGCAGAGCUCAACACAGCGUGGCAAAGUGGCUGUGCCUAGACUGCCUCUCUGGGUUCCUCGUCACUCAGCAGGGCAUCUCUGAGAGAAAUGCC [G89C A107G] showed a self-cleavage of 0.11.
UACGUAGGUGGUUUUCCCCUGAUAGUGCUAAGGGGGCCUGGAAGUUUGGACUGGGCAGAGCUCAACACAGCGUGGCAAAGUGGCUGUGCCUAGACUGCCUCUCUGGAUUCCUCGUCACUCAGCAGGGCAUCUCUGAGAGUAAUGCC [G89C A140U] gave a self-cleavage of 0.05.
With UACGUAGGUGGUUUUCCCCUGAUAGUGCUAAGGGGGCCUGGAAGUUUGGACUGGGCAGAGCUCAACACAGCGUGGCAAAGUGGCUGUGCCUAGACUGCCUCUCUGGAUUCCUCGUCACUCAGCAGGGCAUCUCUGAGAGAAAUACC [G89C G144A] the self-cleavage was 0.05.
UACGUAGGUGGUUUUCCCCUGAUAGUGCUAAGGGGGCCUGGAAGUUUGGACUGGGCAGAGCUCAACACAGCGUGGCAAAGUGGCUGUGUCUUGACUGCCUCUCUGGAUUCCUCGUCACUCAGCAGGGCAUCUCUGAGAGAAAUGCC [G89U A92U] gave a self-cleavage of 0.07.

Reference: the RNAGym collection of RNA variant scans (doi:10.7554/elife.90254)
